# Literature values in article PMC9502310.
# Molecular target: IL-1β (Homo sapiens) (UniProt P01584)
substance,measurement,value
B15 (from UniProt P25212),Kd,0.234 nM
